# Data published in a protein production outcome set (Wang et al. 2014).
# Experiment: label from the status in PepcDB records
row,Sequence,protein production
1,MSLDTVDKLVVFLAKRDGIDKLVKTFQYVAKLACWHVEATRPEAADRFKKWEVASGLSRKAFRTGRSLTGFNALRRNPGATPMIRFLAVLANSGEMVYFFFDHFLWLSRIGSIDAKLAKKMSFISAFGESFGYTFFIIIDCIFIKQRLKSLKKLQHSTDEPKEEIGAKISEIRGDIVMRLMGISANVADLLIALAEIHPNPFCNHTITLGISGLVSAWAGWYRNWPS,failed
2,MSLEAGAGAPLARYAAWRRAGDFIFLSGIIPVNPLTGTIVNGFQDVPEPVRELLGATGEFSTDAKQGPILAQSWYVLESIRRTVASAGGQMSDVIKLVQYFRNLDHFPYYSRVRKLFYPDQPPVSTVVQVSEMLPDATVLIEVEATVWLPPSFNSEAEGHHHHHH,not failed
3,MSLEAIHRSTRIEFSKSSLAYNVQYTKQVSGAKTLWLAVKSNAYGHGLLQVSKIARECGVDGLAVSVLDEGIAIRQAGIDDFILILGPIDVKYAPIASKYHFLTTVSSLDWLKSADKILGKEKLSVNLAVDTGMNRIGVRSKKDLKDEIEFLQEHSDHFSYDGIFTHFASSDNPDDHYFQRQKNRWYELIDGLIMPRYVHVMNSGAAMYHSKELPGCNSIARVGTVVYGVEPSEGVLGPIDKLKPVFELKSALTFVKKIPAGEGISYGSKFVTSRDTWIGTLPIGYGDGWLAEYQDFQLLIDGQKCRQVGQIAMDQMMVALPHEYPIGTEVTLIGKSGKYENTLYDLHKHSGVPPWKITVAFSDRLKRMVVDEGHHHHHH,not failed
4,MSLEILTAGPMLTVQDAGRFGLRHMGVSPAGPIDRAAMALANALVGNDPGAAALEFAGPAGRFRCDRPVRFAVAGADCPLRIDARTVSPGESHRLNPGETLTVGVPEGAVWAYLAFSGAIASPEVLGSRATHLRSGVGGRALGAGDRLPLGEDDPEAPCLRPGLRLEAAAPFRETGPIRLILGPQDDHFAPEVIARLTGCDFTVTPQRDRMAMVLGGVELPAERGHDIVSDGTVPGSVQVPGSGTPLVLLAESQTTGGYPKIGTVASVDLARLAQMPVGARFRFALISAREGEDLWIARQAR,failed
5,MSLEPSQIMPLSVLIAEDNDICRLVAAKALEKCTNDITVVTNGLQALQAYQNRQFDVIIMDIQMPVMDGLEAVSEIRNYERTHNTKRASIIAITADTIDDDRPGAELDEYVSKPLNPNQLRDVVLTCHSEGAEGHHHHHH,not failed
6,MSLERNYEESALFEHQFWLKVLTDHAQFLLDALAPKEKEDIKKATYFVETFTNLLNKVRNVNLMAFSKEAEQAAKEIRAFKLNIIQKQLEGKITIHFTPTFINHMVNEVEEYIAVLEFLKKGEVPPVFHELHYHLVWLTDAAGHAGSISGGLDLVEKRLKEKSEEFTKHFEQFYLKAVEMTGYLRTELHHFPALKKFTKDVSLELKLFSHFLHEVEELELSNEVLSVLSARMADHMAREECYYLLKLAQSSGLEMPKCNPLEGHHHHHH,not failed
7,MSLFTCEDPAVWKAVHNKYWTVVEAKSAGKRKTSGKLLQLDKWFQEDLPAAITARPERFLTHAELVKIMEWKLTKGKFRPRLQQLIGSNNEEAVQSSSSKAFSLLPDVQAAIKELCKLKGVGSATASAVLVAGAPDKVAFMADEAVESIAELRPVEYTDKHYALYLQKMLWKTSELNKVDAQQDWTPHRVEQCLWTWTVANQIQPSLLQGVSLKDATNQKPEKRKTADEKPSKRKKTE,failed
8,MSLGHIIVTGAGSGLGRALTIGLVERGHQVSMMGRRYQRLQQQELLLGNAVIGIVADLAHHEDVDVAFAAAVEWGGLPELVLHCAGTGEFGPVGVYTAEQIRRVMESNLVSTILVAQQTVRLIGERGGVLANVLSSAAQVGKANESLYCASKWGMRGFLESLRAELKDSPLRLVNLYPSGIRSEFWDNTDHVDPSGFMTPEDAAAYMLDALEARSSCHVTDLFIGRNEGHHHHHH,not failed
9,MSLGIIRSILDTDLYKFTTGYAYAKLFPRAYGEFRFIDRNRQGFTEEFAELVRGEIRAMAALSLTRDEKEFLQRELPYLPPIYIDFLDGFRFDPEEVTVSIDAQGHLDIRAQGLLYRVTLWETPILAVISELYYRFIGAKPDWKQVEEVTRSKGELMREHRTTFSIFGMRRRFSLEVEDRVTDILKQYAGESLFGTSNVHLAHKHGLRVSGTHPHEWIQFHGAIYGYKMANYVAMEDWINVYDGDLGTVLTDTYTTDVFMRNFSKKHAMLFTSLRHDSGDPEIFIEKAVRRYEELRVDPKIKYIIFSDSLTPQRAIEIQKLCAGRIKASFGIGTNLTNDVGGGVEPLNIVMKLWKCKMTAKDDWHYCVKLSDVDGKHTGEPEEILLAMNTLGIKPKEGHHHHHH,not failed
10,MSLGKRIFVFDTTLRDGEQVPGCQLNTEEKIIVAKALDELGVDVIEAGFPVSSPGDFNSVVEITKAVTRPTICALTRAKEADINIAGEALRFAKRSRIHTGIGSSDIHIEHKLRSTRENILEMAVAAVKQAKKVVHEVEFFCEDAGRADQAFLARMVEAVIEAGADVVNIPDTTGYMLPWQYGERIKYLMDNVSNIDKAILSAHCHNDLGLATANSLAALQNGARQVECTINGIGERAGNTALEEVVMAMECHKETLGLETGINHKKLVPISHLVSTLMRMQVQSNKAIVGRNAFAHSSGIHQDGFLKHRETYEIIDEGHHHHHH,not failed
11,MSLGQTTLACSFRSLTNPYYTAFNKGAQSFAKSVGLPYVPLTTEGSSEKGIADIRALLQKTGGNLVLNVDPNDSADARVIVEACSKAGAYVTTIWNKPKDLHPWDYNPNYVAHLSYDGVAYGEETATQLFKSMGGKGGVVALGGIFSNVPAIERKAGLDAALKKFPGIQLLDFQVADWNSQKAFPIMQAWMTRFNSKIKGVWAANDDMALGAIEALRAEGLAGQIPVTGMDGTQPGLVAIKSGELVASVDWDPFWLGGIGLSMGLQAKEKKIDLATLPKDRRESFCTATFVTKTNVQDVIARAASPKAEWNNLYARVAGPVVYREGHHHHHH,not failed
12,MSLGRKQQYGTLASIAAKLGISRTTVSNAYNRPEQLSAELRQRILDTAEDMGYLGPDPVARSLRTRRAGAIGVLLTEDLTYAFEDMASVDFLAGVAQAAGDTQLTLIPASPASSVDHVSAQQLVNNAAVDGVVIYSVAKGDPHIDAIRARGLPAVIADQPAREEGMPFIAPNNRKAIAPAAQALIDAGHRKIGILSIRLDRANNDGEVTRERLENAQYQVQRDRVRGAMEVFIEAGIDPGTVPIMECWINNRQHNFEVAKELLETHPDLTAVLCTVDALAFGVLEYLKSVGKSAPADLSLTGFDGTHMALARDLTTVIQPNKLKGFKAGETLLKMIDKEYVEPEVELETSFHPGSTVAEGHHHHHH,not failed
13,MSLHPHAMPDMGPDMNKVPWMGDEQIAMLVYPGMTVMDLVGPHCMFGSLMGAKIYIVAKSLDPVTSDAGLAIVPTATFGTCPRDLTVLFAPGGTDGTLAAASDAETLAFMADRGARAKYITSVCSGSLILGAAGLLKGYKATSHWSCRDALAGFGAIPTEARVVRDRNRITGAGVTAGLDFGLSMVAELRDQTYAECAQLMSEYDPDPPFNAGSMKTAPAHVRTAMIELVAEFTKKADALAGFPKEGHHHHHH,not failed
14,MSLHPNIQAVTDRIRKRSAPSRAAYLAGLDAALREGPFRSRLSCGNLAHGFAASEPGDKSRLRGAATPNLGIITAYNDMLSAHQPFEHYPQLIRETARTLGATAQVAGGVPAMCDGVTQGRAGMELSLFSRDNIAQATAIGLSHDMFDSVVYLGVCDKIVPGLLIGALAFGHLPAIFMPAGPMTPGIPNKQKAEVRERYAAGEATRAELLEAEASSYHSPGTCTFYGTANSNQVLLEAMGVQLPGASFVNPELPLRDALTREGTARALAISALGEDFRPFGRLIDERAIVNAVVALMATGGSTNHTIHWIAVARAAGIVLTWDDMDLISQTVPLLTRIYPNGEADVNRFQAAGGTAFVFRELMDAGYMHDDLPTVVEGGMRAYINEPRLQDGKVTYVPGTATTADDSVARPVGDAFESQGGLRLLRGNLGRSLIKLSAVKPQHRSIQAPAVVIDTPQVLNKLHAAGVLPHDFVVVLRYQGPRANGMPELHSMAPLLGLLQNQGRRVALVTDGRLSGASGKFPAAIHLTPEAARGGPIGRVREGDIVRLDGEAGTLEVLVSAEEWASREVAPNTSVAGNDLGRNLFAINRQVVGPADQGAISISCGPTHPDGALWSYDAEYELGADAAAAAAPHESKDA,failed
15,MSLIEIRKRTLIVETTYHENGPAPAQPLKLAASCAVIRNPYAGRYEPDLMPFMAELRSLGTLLATELVDTLGKDNIEVYSKAAIVGVDGEMEHGAVWHEAGGWAMRSVLGEPKAMVPAVKAVATAGYRMMVPVHYIHASYVRSHFNSIEIGIQDAPRPREILFALVMGTGARVHARLGGLTKEAVSVHDGQR,not failed
16,MSLIERVRTDLYRIPLPTRLTDSTHGAMMDFELITVRIEDSDGATGLGYTYTVNHGGAAVATMVDKDLRGCLLGADAEQIEKIWQSMWWRLHYAGRGGHATSAISAVDIALWDLKGIRARTPLWKLFGGYDPVVPVYAGGIDLELPVADLKTQADRFLAGGFRAIKMKVGRPDLKEDVDRVSALREHLGDSFPLMVDANMKWTVDGAIRAARALAPFDLHWIEEPTIPDDLVGNARIVRESGHTIAGGENLHTLYDFHNAVRAGSLTLPEPDVSNIGGYTTFRKVAALAEANNMLLTSHGVHDLTVHALASVPHRTYMEAHGFGLHAYMAEPMAVTDGCVSAPDRPGHGVVLDFERLGRLAVGEGHHHHHH,not failed
17,MSLIFTAIVVFLFILAIFDLIVGVSNDAVNFLNSAIGAKAAPFKIIVGVAALGVFCGAAMNNGMMEIARHGIFRPEHYTFSELMVVFLSVVITDVVLMDMFNSLGMPTSTTVSLIFELLGGSFFMAMTKVGGTVGFQDLLNTEKALSVILGIFLSVGIAFFFGMVVQYLSRLLFTFNYRRNLRWLAGLFGGVAVTSIIYFMLIKGLKGVSFMTEESTAWIAANTGRLVLYCLVVSIILMQVLYWLRVNVFKVIVLLGTFALAMAFAGNDLVNFIGVPLAGYSSYLDFNANGNGQYDTYLMGALNEPASTPVYFLVAAGIVMVYALITSKKAHNVIKTSVDLARQEEGEEMFGSSGLARSIVRFSTTTANAVSRIIPRPVGRWIDSRFNQDELIMAKGAAFDLVRASVNLVLAGLLIAFGTSLRLPLSTTYVAFMVAMGTSLADRAWSRESAVFRITGVFSVIGGWFITAGAAFILCFLVTMVNHFGGYPAMAGMIILAIFLLVRSHIRFDKKKKSETKDTVFIDMMASHDKEEIWQLLAKHIRQKQLALLDFAENNYMQMTDGFINEDLKRLRRSINDQNAERQMLKVNRRKETLGIRRIEEAKSVVKNTWFHLGCNSCEQIVFCLKRIAEPCKEHVDNNFNPLPKVCVSEFLAAREKLILYIKEAKLIVSNETDEILDPMTYRGKDIKKELKQLRKTQLSRIQQGASSLKISLVYLNLLQESQQLVNILDDLIHATEKLFDPVARIGTDEEFFN,failed
18,MSLILESLVTTLDEQGRINLAPLGPIVLPPQSPGGLPQFLLRPYEGSTTCDNLLASGNAVIHVIDDALLIAKTAIGKVDASDLVVPIPGLEDTHVRLKRCHRWFAVRVTQRAGTPPRHELTARCLASGLVDPFFGFNRAKHAVIEAAVAATRLHLLPPEEIEEELERARIAIEKTGGEPEREALQLIRRHVRESSISEGHHHHHH,not failed
19,MSLINARLIAFEDQWVPALNAPLKQAILADSQDAQLAAAMTYSVLAGGKRLRPLLTVATMQSLGVTFVPERHWRPVMALELLHTYSLIHDDLPAMDNDALRRGEPTNHVKFGAGMATLAGDGLLTLAFQWLTATDLPATMQAALVQALATAAGPSGMVAGQAKDIQSEHVNLPLSQLRVLHKEKTGALLHYAVQAGLILGQAPEAQWPAYLQFADAFGLAFQIYDDILDVVSSPAEMGKATQKDADEAKNTYPGKLGLIGANQALIDTIHSGQAALQGLPTSTQRDDLAAFFSYFDTERVNEGHHHHHH,not failed
20,MSLIPKFRAWDTYEKEMLENVTPLFDDSNSMIAIITDFQIKGSPGTSEIEIGSYDTTFNWDEFPYVIMQSTGLKDKNGVEIFEGDILVYDAPKKYAHRRSMHEIAYADGRFFWEFLDLVFCQSNILYRDGYLVIGNIHENPELLEGNEGHHHHHH,not failed
